These results are taken from patent US20250076311A1 (Chugai, published 2025).

In assay [1] the target is T1, human FcγRIIIaV extracellular domain with C-terminal His-tag (human, UniProt P08637 17-208).
T1 construct: also called human FcgRIIIaV; not shown: His-tag added to the C-terminus
Put plainly: SPR (BIACORE); KD of SG1 / KD of variant.

For assay [2], the target named is T2, cynomolgus monkey FcγRIIa3 extracellular domain with C-terminal His-tag (cynomolgus monkey).
T2 construct: also called cyno FcgRIIa3; cynoFcγRIIa3; not shown: His-tag added to the C-terminus
T2 chain: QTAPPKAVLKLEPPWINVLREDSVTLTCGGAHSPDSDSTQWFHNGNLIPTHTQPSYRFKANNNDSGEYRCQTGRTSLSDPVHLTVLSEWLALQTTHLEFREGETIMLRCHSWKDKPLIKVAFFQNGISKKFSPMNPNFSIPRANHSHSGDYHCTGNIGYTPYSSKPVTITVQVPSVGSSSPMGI
Description: SPR (BIACORE); KD of SG1 / KD of variant.

Assay [3] addresses T3, cynomolgus monkey FcγRIIb extracellular domain with C-terminal His-tag (cynomolgus monkey).
T3 construct: also called cyno FcgRIIb; cynoFcγRIIb; not shown: His-tag added to the C-terminus
T3 chain: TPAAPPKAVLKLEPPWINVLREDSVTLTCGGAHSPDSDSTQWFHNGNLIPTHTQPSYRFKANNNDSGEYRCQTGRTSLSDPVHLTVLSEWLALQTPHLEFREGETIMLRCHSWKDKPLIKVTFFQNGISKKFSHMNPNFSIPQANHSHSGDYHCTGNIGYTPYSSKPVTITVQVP
Description: SPR (BIACORE); KD of SG1 / KD of variant. On the technique in general: Surface plasmon resonance follows binding to a sensor surface in real time, without labels.

The target in assay [4] is T4, cynomolgus monkey FcγRIIIaS extracellular domain with C-terminal His-tag (cynomolgus monkey, UniProt A3RFZ7 21-206 (rhesus entry)).
T4 construct: also called cyno FcgRIIIaS; cynoFcγRIIIaS; not shown: His-tag added to the C-terminus
T4 sequence (A3RFZ7 21-206): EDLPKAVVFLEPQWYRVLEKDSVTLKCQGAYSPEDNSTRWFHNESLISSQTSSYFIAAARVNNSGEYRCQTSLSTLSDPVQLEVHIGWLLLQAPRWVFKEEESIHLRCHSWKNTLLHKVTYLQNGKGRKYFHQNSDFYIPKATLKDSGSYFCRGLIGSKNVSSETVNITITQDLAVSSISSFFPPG
Description: SPR (BIACORE); KD of SG1 / KD of variant.

Assay [5] concerns the target T5, human FcγRIIaR extracellular domain with C-terminal His-tag (human, UniProt P12318 34-217).
T5 construct: also called human FcgRIIaR; FcγRIIa type R; not shown: His-tag added to the C-terminus
T5 chain: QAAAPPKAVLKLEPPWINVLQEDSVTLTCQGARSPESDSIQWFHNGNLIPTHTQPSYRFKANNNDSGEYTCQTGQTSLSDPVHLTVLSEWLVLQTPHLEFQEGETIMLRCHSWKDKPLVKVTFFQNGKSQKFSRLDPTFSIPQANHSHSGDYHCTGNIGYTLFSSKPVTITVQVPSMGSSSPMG
Description: SPR (BIACORE); KD of SG1 / KD of variant.

Assay [6] addresses T6, human FcγRIIaH extracellular domain with C-terminal His-tag (human, UniProt P12318 34-217).
T6 construct: also called human FcgRIIaH; FcγRIIa type H; not shown: His-tag added to the C-terminus
T6 sequence: T5 chain with R134H
Description: SPR (BIACORE); KD of SG1 / KD of variant.

Assay [7] deals with T7, human FcγRIIb extracellular domain with C-terminal His-tag (human, UniProt P31994 43-217).
T7 construct: also called human FcgRIIb; not shown: His-tag added to the C-terminus
T7 sequence: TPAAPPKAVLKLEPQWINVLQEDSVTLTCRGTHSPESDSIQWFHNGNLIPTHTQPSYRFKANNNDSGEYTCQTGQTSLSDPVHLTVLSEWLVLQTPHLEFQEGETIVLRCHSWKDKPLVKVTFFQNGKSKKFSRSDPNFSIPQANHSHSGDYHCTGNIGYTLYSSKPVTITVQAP
Put plainly: SPR (BIACORE); KD of SG1 / KD of variant.

Assay [8] has as its target T8, cynomolgus monkey FcγRIIa2 extracellular domain with C-terminal His-tag (cynomolgus monkey).
T8 construct: also called cyno FcgRIIa2; cynoFcγRIIa2; not shown: His-tag added to the C-terminus
T8 chain: T2 chain with I127K, K130N, P133H, R142Q
Put plainly: SPR (BIACORE); KD of SG1 / KD of variant.

The target in assay [9] is T9, cynomolgus monkey FcγRIIa1 extracellular domain with C-terminal His-tag (cynomolgus monkey).
T9 construct: also called cyno FcgRIIa1; cynoFcγRIIa1; not shown: His-tag added to the C-terminus
T9 chain: T2 chain with T95P, A121T, S128A, P133H, N135D
Put plainly: SPR (BIACORE); KD of SG1 / KD of variant.

The target in assay [10] is T1, human FcγRIIIaV extracellular domain …. Put plainly: SPR (BIACORE), antibody captured, FcgR analyte.
For assay [11], the target named is T2, cynomolgus monkey FcγRIIa3 …. Put plainly: SPR (BIACORE), antibody captured, FcgR analyte.
Assay [12] concerns the target T3, cynomolgus monkey FcγRIIb extracellular …. Description: SPR (BIACORE), antibody captured, FcgR analyte.
For assay [13], the target named is T4, cynomolgus monkey FcγRIIIaS …. Description: SPR (BIACORE), antibody captured, FcgR analyte.
Assay [14] addresses T5, human FcγRIIaR extracellular domain …. Description: SPR (BIACORE), antibody captured, FcgR analyte.
The target of assay [15] is T6, human FcγRIIaH extracellular domain …. Description: SPR (BIACORE), antibody captured, FcgR analyte.
In assay [16] the target is T7, human FcγRIIb extracellular domain with …. Put plainly: SPR (BIACORE), antibody captured, FcgR analyte.
The target in assay [17] is T8, cynomolgus monkey FcγRIIa2 …. Put plainly: SPR (BIACORE), antibody captured, FcgR analyte.
The target in assay [18] is T9, cynomolgus monkey FcγRIIa1 …. Put plainly: SPR (BIACORE), antibody captured, FcgR analyte.
For assay [19], the target named is T10, cynomolgus monkey FcγRIIb extracellular domain, His-tagged (cynomolgus monkey).
T10 construct: also called cyno FcgRIIb; cynoFcγRIIb; not shown: His-tag added to the C-terminus
T10 chain: T3 chain
Put plainly: SPR (BIACORE), antibody captured on chip, soluble FcgR as analyte, 25 C. Here is the method: (§1) The kinetic analysis of interactions between these antibodies and FcγR was carried out using BIACORE® T200 or BIACORE® 4000 (GE Healthcare). HBS-EP+ (GE Healthcare) was used as the running buffer, and the measurement temperature was set to 25° C. […] After the measurement, the antibody captured on the chip was washed off by allowing reaction with 10 mM glycine-HCl, pH1.5 and 25 mM NaOH so that the chip was regenerated and used repeatedly. The sensorgrams obtained as measurement results were analyzed by the 1:1 Langmuir binding model using the BIACORE® Evaluation Software to calculate the binding rate constant ka (L/mol/s) and dissociation rate constant kd (1/s), and the dissociation constant KD (mol/L) was calculated from these values. […] Regarding such interactions, KD values were calculated using the following 1:1 binding model described in BIACORE® T100 Software Handbook BR1006-48 Edition AE.

The target of assay [20] is T11, human FcγRIIb extracellular domain, His-tagged (human, UniProt P31994 43-217).
T11 construct: also called human FcgRIIb; not shown: His-tag added to the C-terminus
T11 sequence: T7 sequence
The description is as above. Here is the method: as §1

For assay [21], the target named is T12, human FcγRIIaH extracellular domain, His-tagged (human, UniProt P12318 34-217).
T12 construct: also called human FcgRIIaH; FcγRIIa (type H); not shown: His-tag added to the C-terminus
T12 sequence: T5 chain with R134H
Described as above. Here is the method:
as §1

Assay [22] concerns the target T13, cynomolgus monkey FcγRIIa1 extracellular domain, His-tagged (cynomolgus monkey).
T13 construct: also called cyno FcgRIIa1; cynoFcγRIIa1; not shown: His-tag added to the C-terminus
T13 chain: T2 chain with T95P, A121T, S128A, P133H, N135D
Put plainly: SPR (BIACORE); KD of SG1 divided by KD of the variant. Here is the method:
as §1

Assay [23] has as its target T14, cynomolgus monkey FcγRIIa3 extracellular domain, His-tagged (cynomolgus monkey).
T14 construct: also called cyno FcgRIIa3; cynoFcγRIIa3; not shown: His-tag added to the C-terminus
T14 chain: T2 chain
The assay is described as above. The method, then:
as §1

In assay [24] the target is T15, cynomolgus monkey FcγRIIIaS extracellular domain, His-tagged (cynomolgus monkey, UniProt A3RFZ7 21-206 (rhesus entry)).
T15 construct: also called cyno FcgRIIIaS; cynoFcγRIIIaS; not shown: His-tag added to the C-terminus
T15 sequence (A3RFZ7 21-206): as the sequence (A3RFZ7 21-206) above
The assay is described as above. The method, then: as §1

Assay [25] concerns the target T16, cynomolgus monkey FcγRIIa2 extracellular domain, His-tagged (cynomolgus monkey).
T16 construct: also called cyno FcgRIIa2; cynoFcγRIIa2; not shown: His-tag added to the C-terminus
T16 chain: T2 chain with I127K, K130N, P133H, R142Q
The description is as above. Here is the method:
as §1

Assay [26] concerns the target T17, human FcγRIIaR extracellular domain, His-tagged (human, UniProt P12318 34-217).
T17 construct: also called human FcgRIIaR; FcγRIIa (type R); not shown: His-tag added to the C-terminus
T17 chain: T5 chain
The description is as above. The method, then:
as §1

Positions count from the first letter of the chain named. Names may count otherwise.

T1 sequence (P08637 17-208 F176V): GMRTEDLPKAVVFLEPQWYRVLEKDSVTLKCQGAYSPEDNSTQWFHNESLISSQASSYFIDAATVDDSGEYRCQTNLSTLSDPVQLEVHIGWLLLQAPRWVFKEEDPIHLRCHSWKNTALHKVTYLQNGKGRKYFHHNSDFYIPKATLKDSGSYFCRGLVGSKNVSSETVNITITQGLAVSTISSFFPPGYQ

B1: M103205H795-MY146/M103202L889-SK1 (antibody, human IgG1, kappa, name in EU numbering)
heavy: QVTLKESGPVLVKPTETLTLTCTVSGIDLSHDDISWVRQAPGKGLEWVGIISYAGSTYYASWAKGRLTISKDTSKNQVVLTMTNMDPVDTATYYCARGVPAYSHGGDLWGQGTLVTVSSASTKGPSVFPLAPSSKSTSGGTAALGCLVKDYFPEPVTVSWNSGALTSGVHTFPAVLQSSGLYSLSSVVTVPSSSLGTQTYICNVNHKPSNTKVDKKVEPKSCDKTHTCPPCPAPELLNGPSVFLFPPKPKDTLMISRTPEVTCVVVDVSEEDPEVKFNWYVDGVEVHNAKTKPREEQYNLTYRVVSVLTVLHQDWLNGKEYKCKVSNKALPAPIEKTISKAKGQPREPQVYTLPPSREEMTKNQVSLTCLVKGFYPSDIAVEWESNGQPENNYKTTPMVLDSDGSFFLYSKLTVDKSRWQQGNVFSCSVMHEALHNHYTQKSLSLSP
light: DIVMTQSPATLSLSPGERATLSCTSSQSVYHANWLSWFQQKPGQPPKLLIYWASTLAYGVPSRFSGSGSGTDFTLTISSLQPEDAATYYCAGGYGGGRYAFGQGTKVEIKRTVAAPSVFIFPPSDEQLKSGTASVVCLLNNFYPREAKVQWKVDNALQSGNSQESVTEQDSKDSTYSLSSTLTLSKADYEKHKVYACEVTHQGLSSPVTKSFNRGEC
notes: Fc variant of MS1032LO06-SG1; positions in EU numbering
B1: the “KD fold (SG1 = 1)” value is 0.09 fold in assay [1]; 3.5 fold in assay [2]; 2.1 fold in [3]; 0.12 fold in assay [4]; 0.5 fold in assay [5]; 0.3 fold in [6]. In addition, the results for the “KD fold (SG1 = 1)” value in [7], in assay [8] and in assay [9] were 5.2 fold, 2.8 fold and 18.8 fold, respectively. The Kd in assay [10] came out at 8800 nM; in assay [11], 4800 nM; in assay [12] it was 850 nM; in assay [13], 3100 nM; in assay [14] it was 2100 nM; in assay [15], 2200 nM. Also, the results for the Kd in assay [16], in assay [17] and in assay [18] were 880 nM, 1800 nM and 170 nM, respectively.

B2: M103205H795-MY264/M103202L889-SK1 (antibody, human IgG1, kappa, name in EU numbering)
heavy: B1 heavy with N238L, E270D, L300S, A332K, M398P
light: B1 light
notes: Asn at EU 236 of MY201 replaced with Leu
For the molecule B2, the Kd in assay [19] was determined as 260 nM; in [20] it was 22000 nM; in assay [21] it was 150 nM. In addition, the “KD fold (SG1 = 1)” value was 0.8 fold in [22] and 2.1 fold in assay [23].

B3: M103205H795-MY201/M103202L889-SK1 (antibody, human IgG1, kappa)
heavy: B1 heavy with E270D, L300S, A332K, M398P
light: B1 light
notes: Fc variant of SG1 with G236N/H268D/A330K; also called MS1032LO06-MY201
Turning to B3, the “KD fold (SG1 = 1)” value in assay [24] amounted to 0.05 fold; in assay [25] it was 3.8 fold; in assay [26] it was 0.5 fold; in assay [23], 4 fold.

Usually Kd stands for the free concentration of one partner at which half of the binding sites on the other are occupied at equilibrium, for simple one-to-one binding.
